Holding throughout (assay): photon counting histogram
The target of experiment [1] is HaloTag-AtCRY2 (photolyase homology region of cryptochrome 2 from A. thaliana) (A. thaliana).
Experiment [2] concerns the target HaloTag-AtCRY2(W374A) (A. thaliana).
Experiment [3] addresses HaloTag-HsCRY2 (human CRY2 photolyase homology region) (human).
Experiment [4] addresses HaloTag-VfAuLOV (light-oxygen-voltage (LOV) domain of V. frigida Aurochrome1) (V. frigida).
Experiment [5] deals with HaloTag-bZip-VfAuLOV (V. frigida).

As usually defined, the stoichiometry N is a count of units in the complex or per binding partner. In experiment [1], “HaloTag-AtCRY2 (photolyase homology region of cryptochrome 2 from A. thaliana) (domain or fragment)” showed a relative brightness (relative to the monomeric standard) of 2 to 4, a relative brightness at 750 nM (relative to the monomeric standard) of 3 and a stoichiometry N of 4. As for “HaloTag-AtCRY2(W374A) (domain or fragment)”, the relative brightness (relative to the monomeric standard) in experiment [2] amounted to 1.5. As to “HaloTag-HsCRY2 (human CRY2 photolyase homology region) (domain or fragment)”, the relative brightness at about 750 nM (relative to the monomeric standard) in experiment [3] is 1.6. Turning to “HaloTag-VfAuLOV (light-oxygen-voltage (LOV) domain of V. frigida Aurochrome1) (domain or fragment)”, the stoichiometry N in experiment [4] was determined as 2. In the case of “HaloTag-bZip-VfAuLOV (domain or fragment)”, the stoichiometry N in experiment [5] is 2.

The values are drawn from doi:10.1101/2025.04.18.649599.
